In patent publication US20240110004 (published 2024):
Where no end group is shown, it is not given here.

Molecular target: VCP (UniProt P55072)
Test: BLI, VCP immobilized on anti-HIS sensor, analyte in Tris pH 8.4, multivalent

VCP, sequence (P55072 2-806): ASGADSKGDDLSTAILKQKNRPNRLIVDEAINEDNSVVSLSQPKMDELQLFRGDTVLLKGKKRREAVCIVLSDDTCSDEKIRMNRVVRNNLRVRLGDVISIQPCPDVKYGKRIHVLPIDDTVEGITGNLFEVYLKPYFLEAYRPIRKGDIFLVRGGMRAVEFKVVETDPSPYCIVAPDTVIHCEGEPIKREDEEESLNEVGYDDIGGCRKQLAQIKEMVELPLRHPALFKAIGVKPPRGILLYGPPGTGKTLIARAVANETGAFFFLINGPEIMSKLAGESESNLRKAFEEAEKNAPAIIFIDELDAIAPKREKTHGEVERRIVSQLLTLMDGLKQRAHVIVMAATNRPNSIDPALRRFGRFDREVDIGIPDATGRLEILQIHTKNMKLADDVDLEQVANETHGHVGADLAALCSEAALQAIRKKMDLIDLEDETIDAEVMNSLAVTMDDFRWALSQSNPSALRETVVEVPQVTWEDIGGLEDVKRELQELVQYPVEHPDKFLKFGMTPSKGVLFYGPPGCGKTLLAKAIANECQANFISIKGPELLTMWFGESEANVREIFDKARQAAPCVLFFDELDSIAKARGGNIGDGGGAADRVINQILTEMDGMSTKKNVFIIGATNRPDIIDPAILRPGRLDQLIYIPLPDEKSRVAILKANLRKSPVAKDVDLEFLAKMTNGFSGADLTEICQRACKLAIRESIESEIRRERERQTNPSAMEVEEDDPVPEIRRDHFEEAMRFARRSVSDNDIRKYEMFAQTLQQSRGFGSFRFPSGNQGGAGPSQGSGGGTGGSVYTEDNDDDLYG

- Kd: 92 nM
B1: P1 (peptide)
chain: HVLVMSATRR
modifications: not fully specified (N-terminus); also: multivalent polymer conjugate
